Source: article PMC4933465

How the values were obtained:
[1] = molecular target: Link_TSG6 (recombinant Link module from human TSG-6) (human) (UniProt P98066); test: SPR; Link_TSG6 amine-coupled to a C1 chip (800–1000 RU), chemokine as analyte; BIAcore 3000; 10 mM HEPES, 150 mM NaCl, 0.05% Tween 20, pH 7.4; 40 μl/min; 1:1 Langmuir model; apparent affinities
Biotinylated CCL21 = Biotinylated CCL21 (UniProt O00585)
CCL2 = CCL2 (UniProt P13500)
CCL7 = CCL7 (UniProt P80098)
Sequence of CCL7 (P80098 24-99): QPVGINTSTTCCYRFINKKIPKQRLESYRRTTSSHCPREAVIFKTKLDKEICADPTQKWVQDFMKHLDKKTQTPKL

Sequence of Link_TSG6 (recombinant Link module from human TSG-6) (human) (P98066 36-133): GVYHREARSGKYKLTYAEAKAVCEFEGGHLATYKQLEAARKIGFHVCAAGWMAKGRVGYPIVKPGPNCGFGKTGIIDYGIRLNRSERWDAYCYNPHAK
Sequence of Link_TSG6 (recombinant Link module from human TSG-6) (P98066 36-133): as above
Sequence of Biotinylated CCL21 (O00585 24-134): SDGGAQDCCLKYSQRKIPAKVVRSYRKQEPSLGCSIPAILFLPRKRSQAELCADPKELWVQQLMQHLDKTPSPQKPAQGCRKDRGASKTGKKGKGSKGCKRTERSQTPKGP
Sequence of CCL2 (P13500 24-99): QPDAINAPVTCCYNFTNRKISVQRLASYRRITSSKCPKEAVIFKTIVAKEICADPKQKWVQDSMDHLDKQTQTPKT

Row | Kd [1] [nM] | koff [1] [s⁻¹] | kon [1] [M⁻¹ s⁻¹] | accumulation of biotinylated CCL21 (50 nM) on EaHY926 endothelial cells after pre-incubation with Link TSG6 at a 1:1 molar ratio (% of chemokine alone) (Biotinylated CCL21) | accumulation of biotinylated CXCL4 (10 nM) on EaHY926 endothelial cells after pre-incubation with a 5-fold molar excess of Link TSG6 (% of chemokine alone) (Biotinylated CXCL4) | accumulation of CCL2 (50 nM) on EaHY926 endothelial cells after pre-incubation with Link TSG6 at 1:1 to 5:1 molar ratio (∼75 to ∼55% of chemokine alone) (% of chemokine alone) (CCL2) | accumulation of CCL7 (50 nM) on EaHY926 endothelial cells after pre-incubation with Link TSG6 at a 1:1 molar ratio (% of chemokine alone) (CCL7) | Substance
1 | 3.9 | 0.0014 | 360000 |  |  |  |  | CXCL4 (ligand)
2 |  |  |  | 50 | 51 | 75 | 50 | Link_TSG6 (recombinant Link module from human TSG-6) (from UniProt P98066 36-133) (domain or fragment)
